Assay results reported in patent US20220380475A1 (SORRISO PHARMACEUTICALS, published 2022).
Where a chain is given by its changes, count along the chain named. Names may count otherwise.

Key:
[1] = biological target: T1, membrane-bound human IL-6R on TF-1 cells (human, UniProt P08887 20-468); test: cell-based or functional assay
T1 sequence: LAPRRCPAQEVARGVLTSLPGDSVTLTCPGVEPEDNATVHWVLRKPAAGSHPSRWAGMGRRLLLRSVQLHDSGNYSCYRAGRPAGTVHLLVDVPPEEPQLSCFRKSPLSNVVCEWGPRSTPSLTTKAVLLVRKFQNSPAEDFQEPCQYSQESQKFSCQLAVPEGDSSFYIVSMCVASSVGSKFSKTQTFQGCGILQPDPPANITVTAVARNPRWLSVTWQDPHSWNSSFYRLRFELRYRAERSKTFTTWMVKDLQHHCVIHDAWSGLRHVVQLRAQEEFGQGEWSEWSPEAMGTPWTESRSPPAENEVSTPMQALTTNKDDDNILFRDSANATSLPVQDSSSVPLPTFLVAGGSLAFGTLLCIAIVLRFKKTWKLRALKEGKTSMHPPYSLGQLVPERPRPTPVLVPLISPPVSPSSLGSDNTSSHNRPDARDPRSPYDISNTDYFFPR

[2] = biological target: T2, recombinant soluble human IL-6R (human, UniProt P08887 20-365); test: gp130 ELISA (competition), second assay, 10 min pre-incubation; 20 ng/mL IL6R, 100 ng/mL IL6
T2 construct: also called sIL-6R; shIL-6R
T2 sequence: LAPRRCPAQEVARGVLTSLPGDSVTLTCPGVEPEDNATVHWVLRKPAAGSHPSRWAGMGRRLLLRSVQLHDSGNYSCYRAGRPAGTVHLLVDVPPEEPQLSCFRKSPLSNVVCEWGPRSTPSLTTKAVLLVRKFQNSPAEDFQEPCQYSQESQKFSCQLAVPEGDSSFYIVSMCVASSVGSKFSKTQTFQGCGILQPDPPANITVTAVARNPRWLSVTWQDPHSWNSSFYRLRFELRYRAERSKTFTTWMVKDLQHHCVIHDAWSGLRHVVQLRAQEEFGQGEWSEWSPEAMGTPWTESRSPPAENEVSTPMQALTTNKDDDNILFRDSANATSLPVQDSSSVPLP
Protocol: (§1) Briefly, Maxisorp 96-well plates were coated overnight with 50 μl/well 0.5 μg/ml gp130 then blocked. ICVDs were serially diluted and mixed 1:1 with 100 ng/ml recombinant human IL-6 then 1:1 with 40 ng/ml recombinant human sIL-6R, and incubated for 1 hour to allow binding before adding to the gp130-coated plates. Bound IL-6R was detected with 50 μl/well 0.250 μg/ml BAF227 and then 50 μl/well 1/1000 diluted Extravidin-HRP and the level of neutralisation by the ICVD of IL-6R binding to IL-6/gp130 was determined.
(§2) A separate assay was performed on 21E6 and 7F6 using the same protocol as above with the exception that the ICVD/IL-6R/IL-6 where only incubated with shaking for 10 min before being added to the assay plates.

[3] = biological target: T2, recombinant soluble human IL-6R; test: gp130 ELISA (competition), second assay; reference 7F6
Protocol: as §1, §2

[4] = biological target: T2, recombinant soluble human IL-6R; test: standard gp130 ELISA (competition)
[5] = biological target: T2, recombinant soluble human IL-6R; test: standard gp130 ELISA (competition), Experiment 1; 10 ng/mL IL-6R, 50 ng/mL IL-6
Protocol: The inhibitory potency and efficacy (maximal inhibition) of the E. coli-produced 5G9 derivatives were confirmed in vitro in the gp130 ELISA, TF-1 cell and M1 cell functional assays measuring responses mediated via human IL-6R. The gp130 assays follow the standard protocol with a final assay concentration of 10 ng/mL IL-6R and 50 ng/mL IL-6.

[6] = biological target: T2, recombinant soluble human IL-6R; test: cell-based or functional assay
[7] = biological target: T1, membrane-bound human IL-6R on TF-1 cells; test: cell-based or functional assay; remark: listed apart in the source

B1: 21E6 (VHH)
VHH: EVQLVESGGGLVLAGGSTRLTCLASGSISSINVIGWYRQAPGKQRELVAMIGRGEGANYGDFAKGRFTISRDNSKNTVYLQMNSLKPEDTAVYYCYADYEDRDSPLNGSWGQGTQVTVSS
notes: Family-expansion clone related to 7F6 (Q13L and F106L); Expressed from a phagemid vector and purified
B1 was tested, and the “IC50 in TF1 assay (separate assay, raised background)” value [1] was 11 nM, the IC50 [2] was 0.3 nM and the “fold less potent than 7F6” value [3] was ~2 fold.

B2: ID-75V (VHH)
VHH: DVQLVESGGGLVQAGGSTRLTCKASGSISNINSINVMAWYRQAPGKQRELVAIIGKGGGTNYADFVKGRFTISRDAAKNTVNLQMNSLKPEDTAVYYCYADYEDHDSPFNASWGQGTQVTVSS
notes: also called 5G9 + E1D, F29S, R105H
B2: binds [4].

B3: ID-114V (VHH)
VHH: B2 VHH with D1E, V81L, N82Y
notes: E. coli-produced cis/trans potent 5G9 derivative; also called 5G9 + F29S, V81L, N82Y, R105H; not shown: C-terminal FLAG-6xHis
For B3, the EC50 [5] was 0.138 nM, the “M1 cellular assay EC50 (20 ng/ml IL-6R, 100 ng/ml IL-6)” value [6] was 0.52 nM and the “TF-1 cell assay EC50 (5 ng/ml IL-6)” value [7] was 0.29 nM.
